Numbering of substitutions follows the chain as printed.
T1: recombinant truncated HuCoV-NL63 nucleocapsid (N) protein AA100-377 (HuCoV-NL63, UniProt Q6Q1R8 100-377)
T1 sequence: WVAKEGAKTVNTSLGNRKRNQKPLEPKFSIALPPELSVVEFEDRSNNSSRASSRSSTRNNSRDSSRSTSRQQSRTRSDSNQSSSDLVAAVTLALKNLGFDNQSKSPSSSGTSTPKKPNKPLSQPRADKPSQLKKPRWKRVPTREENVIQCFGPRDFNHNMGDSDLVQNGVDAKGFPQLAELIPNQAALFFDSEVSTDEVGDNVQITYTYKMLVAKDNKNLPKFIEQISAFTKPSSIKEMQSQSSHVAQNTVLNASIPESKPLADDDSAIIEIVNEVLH

B1: mBG67 mouse monoclonal antibody against SARS-CoV-2 nucleocapsid protein (antibody, V domains shown)
VH: EVQLVESGGGLVQPGGSLKLSCAASGFTFSNYGMSWVRQTPDKRLELVATINRNGGSTYYLDSVKVRFTISRDNAKSTLFLQLSSLKSDDTAMYYCARIYDFDEDYFDVWGAGTTVTVSS
VL: QIVLTQSPAIMSASLGERVTMTCTASSSVSSSYLHWYQQKPGSSPKLWIYSTSNLASGVPARFSGSGSGTSYSLTISSMEAEDAATYYCLQYHRSPWTFGGGTKLEIK
B2: mBG86 mouse monoclonal antibody against SARS-CoV-2 nucleocapsid protein (antibody, V domains shown)
VH: B1 VH with L83M, D89E, F102Y
VL: B1 VL
B3: mBG21 mouse monoclonal antibody against SARS-CoV-2 nucleocapsid protein (antibody, V domains shown)
VH: QIQLVQSGPELKKPGETVKISCKASGYTFTDYSMHWVKQAPGKGSKWMGWINTETGEPTYADDFKGRFAFSLETSASTAYLQINNLKNEDTATYFCALRRWGQGTLVTVSA
VL: IVMTQTPKFLLVSAGDRVTITCKASQSVSNDVAWFQQKPGQSPKLLIYFASNRYTGVPDRFTGSGYGTDFTFTITTVQAEDLAVYFCQQDYSSPWTFGGGTKLEIK
B4: mBG22 mouse monoclonal antibody against SARS-CoV-2 nucleocapsid protein (antibody, V domains shown)
VH: B3 VH
VL: B3 VL
B5: mBG17 mouse monoclonal antibody against SARS-CoV-2 nucleocapsid protein (antibody, V domains shown)
VH: EVKLEESGGGLVQPGGSMKFSCVASGFTFSDYWMNWVRQSPDKGLEWVAEIRLKSNNYATHYAASVKGRFTISRDDSKSSVYLQMNNLRAEDSGIYYCTRSAMDYWGQGTSVTVSS
VL: DIVMSQSPSSLAVSVGEKITMSCKSSQSLLYTSDQKNYLAWFQQKPGQSPKLLIFWASTRDSGVPDRFTGSGSGTDFTLTISSVKAEDLAVYYCQQFYNYPRTFGGGTKLEIK

Experiments:
Assay in all cases: ELISA
[1] = target: recombinant truncated SARS-CoV nucleocapsid (N) protein AA133-422 (SARS-CoV, UniProt P59595 133-422)
[2] = target: recombinant truncated SARS-CoV-2 nucleocapsid (N) protein AA133-419 (SARS-CoV-2, UniProt P0DTC9 133-419)
[3] = target: recombinant truncated SARS-CoV nucleocapsid (N) protein AA133-422 (SARS-CoV, UniProt P59595)
[4] = target: recombinant truncated HuCoV-NL63 nucleocapsid (N) protein AA100-377 (HuCoV-NL63, UniProt Q6Q1R8)
[5] = target: recombinant truncated SARS-CoV-2 nucleocapsid (N) protein AA133-419 (SARS-CoV-2, UniProt P0DTC9)
[6] = target: T1, recombinant truncated HuCoV-NL63 …

Binder	Corected Average (background-corrected A450) [1]	Corected Average (background-corrected A450) [2]	Corected Average (background-corrected A450) [3]	Corected Average (background-corrected A450) [4]	Corected Average (background-corrected A450) [5]	Corected Average (background-corrected A450) [6]
B1	0.094 absorbance at 450nm	0.861 absorbance at 450nm				
B2		0.806 absorbance at 450nm				
B3			0.302 absorbance at 450nm	0.339 absorbance at 450nm	0.743 absorbance at 450nm	
B4			0.779 absorbance at 450nm	0.339 absorbance at 450nm	0.754 absorbance at 450nm	
B5	0.872 absorbance at 450nm	0.832 absorbance at 450nm				0.365 absorbance at 450nm

— publication PMC7849420 (Virology, 2021)
